Data on 1 molecule can be found in US20150284428A1 (INTERK PEPTIDE THERAPEUTICS, published 2015).

The assay concerns the target T1, cytoplasmic domain of β6 having the amino acid sequence HDRKEVAKFEAERSKAKWQTGTNPLYRGSTSTFKNVTYKHREKQKVDLSTDC
T1 construct: Integrin β6 subunit cytoplasmic domain; also called β6 domain; cytoplasmic domain fragment of β6
T1 chain: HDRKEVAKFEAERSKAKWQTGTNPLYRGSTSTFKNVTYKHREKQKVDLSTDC
Kind of assay: binding assay of MAP kinase fragments with β6 cytoplasmic domain, FIG. 4.

B1: p38 MAP kinase fragment HRDLKPSNLAVNEDCELKILDFGLAR (peptide)
peptide: HRDLKPSNLAVNEDCELKILDFGLAR
notes: also called fragment of p38 MAP kinase
As for B1, the binding result is reported as “binds”.
